Test results taken from patent publication US20210171576.

Molecular target: Untagged human mitochondrial ClpP (HsClpP) (UniProt Q16740)
Sequence (Q16740 other isoform, or with tags, fused parts or gaps): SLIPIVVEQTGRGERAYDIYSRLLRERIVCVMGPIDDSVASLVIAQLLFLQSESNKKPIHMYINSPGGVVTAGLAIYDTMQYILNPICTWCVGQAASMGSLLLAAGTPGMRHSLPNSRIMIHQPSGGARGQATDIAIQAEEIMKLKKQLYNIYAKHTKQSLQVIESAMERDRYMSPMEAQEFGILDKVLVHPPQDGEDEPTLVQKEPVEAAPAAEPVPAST

Untagged human mitochondrial ClpX (HsClpX), sequence (chain, as listed by the source): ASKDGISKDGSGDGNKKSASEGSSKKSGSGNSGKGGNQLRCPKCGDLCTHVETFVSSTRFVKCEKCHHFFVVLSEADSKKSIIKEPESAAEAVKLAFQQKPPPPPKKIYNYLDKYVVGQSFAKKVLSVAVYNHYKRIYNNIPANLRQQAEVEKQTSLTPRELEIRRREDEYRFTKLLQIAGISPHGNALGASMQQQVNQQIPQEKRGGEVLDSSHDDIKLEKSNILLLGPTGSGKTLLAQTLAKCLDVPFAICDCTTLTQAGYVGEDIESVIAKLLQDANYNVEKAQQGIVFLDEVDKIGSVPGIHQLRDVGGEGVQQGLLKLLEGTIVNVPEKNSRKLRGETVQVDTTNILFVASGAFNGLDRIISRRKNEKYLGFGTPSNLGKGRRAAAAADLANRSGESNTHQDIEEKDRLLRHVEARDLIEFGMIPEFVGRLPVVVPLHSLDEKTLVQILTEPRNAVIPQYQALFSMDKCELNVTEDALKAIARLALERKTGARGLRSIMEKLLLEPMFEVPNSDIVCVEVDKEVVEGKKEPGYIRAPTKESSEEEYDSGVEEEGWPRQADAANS

Substance: Untagged human mitochondrial ClpX (HsClpX)
- Hill coefficient (h) of casein-FITC degradation by HsClpP with titrated HsClpX: mild positive cooperativity (h=1.25) in HsCIpP-binding
- K0.5 (microscopic apparent dissociation constant). Hill fit of initial rates of casein-FITC degradation; HsClpX titrated 0-18 µM against 3 µM HsClpP: a K0.5 of 5.7 µM
- Vmax of casein-FITC degradation by HsClpP with titrated HsClpX: a Vmax of 6.88 RFU.s^-1
